The target in test [1] is TBP (Saccharomyces cerevisiae) (UniProt P13393). The settings on record: cited from earlier work.
Test [2] has as its target Nap1 FL (C200A, C249A, C272A) (S. cerevisiae) (UniProt P25293). The test can be described thus: SEC-MALS; 1:1:1 mixture of Kap114, Nap1_(2) and H2A-H2B (80 µM each), no Ran^GTP; Assay buffer without glycerol; Nap1 counted as dimer. Background: SEC sorts molecules by how far they enter the pores of the column.
The target in test [3] is T1, Kap114 (S. cerevisiae, UniProt P53067 1-1004).
T1 construct: also called Sc Kap114; source: E. coli, expressed as GST-Kap114, purified (Glutathione Sepharose 4B, on-column TEV cleavage, SEC)
T1 sequence: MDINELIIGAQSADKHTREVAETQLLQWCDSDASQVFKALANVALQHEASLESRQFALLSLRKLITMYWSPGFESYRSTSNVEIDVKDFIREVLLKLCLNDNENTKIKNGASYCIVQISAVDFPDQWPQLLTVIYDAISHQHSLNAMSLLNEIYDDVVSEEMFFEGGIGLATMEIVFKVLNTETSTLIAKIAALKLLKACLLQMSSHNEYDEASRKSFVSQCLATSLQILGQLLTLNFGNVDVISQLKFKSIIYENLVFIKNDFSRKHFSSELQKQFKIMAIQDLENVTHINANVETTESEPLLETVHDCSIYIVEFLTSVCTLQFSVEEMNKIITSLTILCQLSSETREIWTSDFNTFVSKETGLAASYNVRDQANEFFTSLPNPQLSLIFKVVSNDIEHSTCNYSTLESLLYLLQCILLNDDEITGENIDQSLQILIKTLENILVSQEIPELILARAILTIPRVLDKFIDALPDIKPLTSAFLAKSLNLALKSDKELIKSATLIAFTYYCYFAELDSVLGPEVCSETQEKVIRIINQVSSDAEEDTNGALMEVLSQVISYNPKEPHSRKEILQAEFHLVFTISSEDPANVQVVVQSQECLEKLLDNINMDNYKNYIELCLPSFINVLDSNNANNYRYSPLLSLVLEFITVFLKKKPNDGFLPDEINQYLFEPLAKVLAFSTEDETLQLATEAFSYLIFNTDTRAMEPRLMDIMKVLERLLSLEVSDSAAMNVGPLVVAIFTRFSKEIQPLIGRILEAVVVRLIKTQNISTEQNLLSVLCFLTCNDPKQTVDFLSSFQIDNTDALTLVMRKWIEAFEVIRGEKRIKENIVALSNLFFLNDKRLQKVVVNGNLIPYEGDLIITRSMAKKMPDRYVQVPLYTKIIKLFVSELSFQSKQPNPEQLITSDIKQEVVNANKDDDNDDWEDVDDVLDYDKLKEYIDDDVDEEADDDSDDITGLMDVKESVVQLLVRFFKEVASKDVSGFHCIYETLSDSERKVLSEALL
Described as above.

Test [4] has as its target Nap1 FL (C200A, C249A, C272A) (S. cerevisiae) (UniProt P25293). The test is described as follows: SEC-MALS; equimolar mixture of Kap114, Nap1_(2), H2A-H2B and Ran^GTP; Assay buffer without glycerol; Nap1 counted as dimer.
The target of test [5] is T1, Kap114. The test is described as above.
The target in a further test is T2, MBP-Kap114 (S. cerevisiae, UniProt P53067 1-1004).
T2 construct: TEV site between MBP and Kap114; pMalE modified with a His6-tag immediately N-terminal of MBP and a TEV site after MBP; held on amylose resin in the pull-downs; also called immobilized MBP-Kap114; iK; source: E. coli BL21 Gold, purified (amylose beads, HiTrap Q, SEC); not shown: MBP, N-terminal, kept
T2 sequence: T1 sequence
The test is described as follows: pull-down; MBP-Kap114 (WT or mutant; or MBP alone) 1 µM immobilized on amylose resin, equimolar Nap1_(2) ± H2A-H2B (1 or 2 µM) ± Ran^GTP; Assay Buffer (20 mM HEPES pH 7.4, 150 mM NaCl, 2 mM MgCl2, 10% glycerol, 2 mM DTT), 30 min at 4°C; Coomassie-stained SDS-PAGE. The settings on record: both partners purified.

TBP (Saccharomyces cerevisiae), sequence (P13393 2-240): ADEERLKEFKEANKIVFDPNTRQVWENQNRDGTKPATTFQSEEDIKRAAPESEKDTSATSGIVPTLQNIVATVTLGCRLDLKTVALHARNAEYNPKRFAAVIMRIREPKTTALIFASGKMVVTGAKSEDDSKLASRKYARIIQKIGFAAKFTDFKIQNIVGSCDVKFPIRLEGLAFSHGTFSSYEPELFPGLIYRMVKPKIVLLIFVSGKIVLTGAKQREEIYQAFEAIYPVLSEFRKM

As to Kap114 (from UniProt P53067), in test [1], the dissociation constant (Kd) was under 1 nM.
Turning to “Sc H2A-H2B (from UniProt P04911 2-124; P02293 5-131) (complex)”, the stoichiometry N (in test [2]; with Kap114 [3]; in test [4]; with Kap114 [5]) was 1 in each case.

B1: Nap1 α5/6mut (E194A/D201A/D205A) (natural protein, S. cerevisiae, UniProt P25293 1-417, looked up)
chain: MSDPIRTKPKSSMQIDNAPTPHNTPASVLNPSYLKNGNPVRAQAQEQDDKIGTINEEDILANQPLLLQSIQDRLGSLVGQDSGYVGGLPKNVKEKLLSLKTLQSELFEVEKEFQVEMFELENKFLQKYKPIWEQRSRIISGQEQPKPEQIAKGQEIVESLNETELLVDEEEKAQNDSEEEQVKGIPSFWLTALANLPIVAATITARDAEVLEYLQDIGLEYLTDGRPGFKLLFRFDSSANPFFTNDILAKTYFYQKELGYSGDFIYDHAEGAEISWKDNAHNVTVDLEMRKQRNKTTKQVRTIEKITPIESFFNFFDPPKIQNEDQDEELEEDLEERLALDYSIGEQLKDKLIPRAVDWFTGAALEFEFEEDEEEADEDEDEEEDDDHGLEDDDGESAEEQDDFAGRPEQAPECKQS
notes: also called mutant α5/6mut; source: E. coli BL21 gold, purified (Ni-NTA, TEV cleavage, HiTrap Q, Superdex S200)
For B1, the binding result with MBP-Kap114 was “binds”.

B2: Nap1 core (residues 75–365), His tag removed (domain or fragment, S. cerevisiae, UniProt P25293 75-365, looked up)
chain: GSLVGQDSGYVGGLPKNVKEKLLSLKTLQSELFEVEKEFQVEMFELENKFLQKYKPIWEQRSRIISGQEQPKPEQIAKGQEIVESLNETELLVDEEEKAQNDSEEEQVKGIPSFWLTALENLPIVCDTITDRDAEVLEYLQDIGLEYLTDGRPGFKLLFRFDSSANPFFTNDILCKTYFYQKELGYSGDFIYDHAEGCEISWKDNAHNVTVDLEMRKQRNKTTKQVRTIEKITPIESFFNFFDPPKIQNEDQDEELEEDLEERLALDYSIGEQLKDKLIPRAVDWFTGAAL
notes: Nap1 (nucleosome assembly protein 1), S. cerevisiae, core, residues 75–365; also called Nap1_(2) core; source: E. coli, purified (nickel-NTA, ion exchange, thrombin cleavage, SEC)
On to B2, for which, in the test with MBP-Kap114, the binding result is reported as “binds”.

A word on the Kd: it is the free concentration of one partner at which half of the binding sites on the other are occupied at equilibrium, for simple one-to-one binding. For orientation: stoichiometry N means a count of units in the complex or per binding partner.

Values taken from PMC11602657, “Nap1 and Kap114 co-chaperone H2A-H2B and facilitate targeted histone release in the nucleus” (The Journal of Cell Biology, 2024).
